Results from IntAct's records for PubMed 33368531.

B1: Centriole and centriolar satellite protein OFD1 (Homo sapiens), O75665 (parent)
chain: MMAQSNMFTVADVLSQDELRKKLYQTFKDRGILDTLKTQLRNQLIHELMHPVLSGELQPRSISVEGSSLLIGASNSLVADHLQRCGYEYSLSVFFPESGLAKEKVFTMQDLLQLIKINPTSSLYKSLVSGSDKENQKGFLMHFLKELAEYHQAKESCNMETQTSSTFNRDSLAEKLQLIDDQFADAYPQRIKFESLEIKLNEYKREIEEQLRAEMCQKLKFFKDTEIAKIKMEAKKKYEKELTMFQNDFEKACQAKSEALVLREKSTLERIHKHQEIETKEIYAQRQLLLKDMDLLRGREAELKQRVEAFELNQKLQEEKHKSITEALRRQEQNIKSFEETYDRKLKNELLKYQLELKDDYIIRTNRLIEDERKNKEKAVHLQEELIAINSKKEELNQSVNRVKELELELESVKAQSLAITKQNHMLNEKVKEMSDYSLLKEEKLELLAQNKLLKQQLEESRNENLRLLNRLAQPAPELAVFQKELRKAEKAIVVEHEEFESCRQALHKQLQDEIEHSAQLKAQILGYKASVKSLTTQVADLKLQLKQTQTALENEVYCNPKQSVIDRSVNGLINGNVVPCNGEISGDFLNNPFKQENVLARMVASRITNYPTAWVEGSSPDSDLEFVANTKARVKELQQEAERLEKAFRSYHRRVIKNSAKSPLAAKSPPSLHLLEAFKNITSSSPERHIFGEDRVVSEQPQVGTLEERNDVVEALTGSAASRLRGGTSSRRLSSTPLPKAKRSLESEMYLEGLGRSHIASPSPCPDRMPLPSPTESRHSLSIPPVSSPPEQKVGLYRRQTELQDKSEFSDVDKLAFKDNEEFESSFESAGNMPRQLEMGGLSPAGDMSHVDAAAAAVPLSYQHPSVDQKQIEEQKEEEKIREQQVKERRQREERRQSNLQEVLERERRELEKLYQERKMIEESLKIKIKKELEMENELEMSNQEIKDKSAHSENPLEKYMKIIQQEQDQESADKSSKKMVQEGSLVDTLQSSDKVESLTGFSHEELDDSW

Variants of: B1
Conditions: with gbrap_human GABARAP

Row | Variant | effect of a mutation on the interaction
1 | Y961A;I964A | disrupting interaction

Variants of: B1
Conditions: with mlp3b_human MAP1LC3B

Row | Variant | effect of a mutation on the interaction
2 | Y961A;I964A | disrupting interaction

Variants of: B1
Conditions: with gbrap_human GABARAP
Remark: another data set of the same source

Row | Variant | effect of a mutation on the interaction
3 | Y961A;I964A | disrupting interaction
